# According to patent publication US20230135471A1, “UBIQUITIN VARIANTS WITH IMPROVED AFFINITY FOR 53BP1” (Integrated DNA Technologies, Inc., priority 2021, published 2023):
# Biological target: 53BP1 fragment (a.a. 1221-1718) fused to an adenylate cyclase fragment (two-hybrid) (UniProt Q12888)
# Assay: cell-based or functional assay
Substance,Experiment 1 Average Enrichment [log2],Experiment 1 Rep 1 Enrichment [log2],Experiment 1 Rep 2 Enrichment [log2],Experiment 2 Average Enrichment [log2],Experiment 2 Rep 1 Enrichment [log2],Experiment 2 Rep 2 Enrichment [log2]
i53 + K48V two-hybrid fusion (designed binder),0.54,0.59,0.48,0.34,0.23,0.46
i53 + P38F two-hybrid fusion (designed binder),0.67,0.91,0.43,0.81,0.48,1.13
i53 + S57Q two-hybrid fusion (designed binder),0.07,0.07,0.07,0.14,0.27,0.01
i53 + S57K two-hybrid fusion (designed binder),-0.4,-0.22,-0.58,0.15,-0.07,0.36
i53 + Q31R two-hybrid fusion (designed binder),0.15,0.66,-0.37,-0.22,0.14,-0.58
i53 + S49G two-hybrid fusion (designed binder),0.02,0.27,-0.23,-0.31,-0.57,-0.05
i53 + D32A two-hybrid fusion (designed binder),0.11,0.2,0.02,0.19,0.19,0.19
i53 + P19K two-hybrid fusion (designed binder),1,2.12,-0.12,-0.68,-0.26,-1.1
i53 + Q31L two-hybrid fusion (designed binder),0.41,0.71,0.11,-0.15,-0.23,-0.06
i53 + I13F two-hybrid fusion (designed binder),0.53,1.04,0.03,-0.09,-0.26,0.07
i53 + A28M two-hybrid fusion (designed binder),0.03,0.49,-0.42,-0.19,-0.51,0.12
i53 + M1N two-hybrid fusion (designed binder),-0.25,-0.37,-0.13,0.02,-0.04,0.08
i53 + H68E two-hybrid fusion (designed binder),-1.08,-0.69,-1.48,0.1,0.33,-0.13
i53 + K48I two-hybrid fusion (designed binder),0.64,0.5,0.77,0.42,0.35,0.49
i53 + T9E two-hybrid fusion (designed binder),-0.04,0.37,-0.44,0.33,0.02,0.63
i53 + A28W two-hybrid fusion (designed binder),0.03,0.48,-0.41,0.12,0.41,-0.17
i53 + S57D two-hybrid fusion (designed binder),1.22,1.05,1.39,0.86,0.89,0.83
i53 + S65H two-hybrid fusion (designed binder),1.1,0.69,1.5,1.16,1.34,0.98
i53 + E18Q two-hybrid fusion (designed binder),0.72,0.61,0.83,0.03,0.02,0.05
i53 + E18D two-hybrid fusion (designed binder),-0.85,-0.69,-1.02,0.14,1.65,-1.37
i53 + S57R two-hybrid fusion (designed binder),0.02,0.05,-0.01,-0.18,-0.32,-0.03
i53 + L67M two-hybrid fusion (designed binder),1.03,0.98,1.07,0.77,0.65,0.88
i53 + K63V two-hybrid fusion (designed binder),-0.13,-0.15,-0.11,0.01,0,0.02
i53 + K29Q two-hybrid fusion (designed binder),0.05,-0.21,0.31,-0.04,-0.26,0.17
i53 + N25R two-hybrid fusion (designed binder),0.31,0.25,0.36,0.29,0.25,0.34
i53 + L67T two-hybrid fusion (designed binder),0.09,0.69,-0.52,0.11,-0.3,0.52
